Data: patent US7473541B2, “Identification, cloning, expression, and purification of three novel human calcium-independent phospholipase A2 family members possessing triacylglycerol lipase and acylglycerol transacylase activities” (priority 2004, dated 2009)
“Also recorded” adds a separate entry of the source.

Experiments:
Assay type in all cases: biochemical
[1] = Assay for triolein lipase activity of recombinant enzymes; conditions: for triolein lipase specific activity: peak fractions from Co2+ TALON affinity column
Experimental: Assay for Triolein Lipase Activity—Sample fractions were incubated in 85 mM potassium phosphate, pH 7.0 containing 2 mM EDTA and 2 mM DTT for 15 min at 37° C. in the presence of a suspension of 100 microM [9,10-^3H(N)]-triolein (100 microCi/micromol) in 25 microM egg yolk lecithin, and 100 microM sodium taurocholate. In some reactions, BEL was added at the indicated concentrations and incubated with enzyme at room temperature for 3 min prior to the addition of radiolabeled substrate. After extraction of radiolabeled reaction products and remaining substrate into butanol, samples were spotted on TLC plates, overlaid with oleic acid standard, dried, and developed in chloroformlmethanol/NH4OH (65:25:5). The region of the plate corresponding to the oleic acid standard (visualized by iodine staining) was scraped into scintillation vials and quantified by liquid scintillation spectrometry.

[2] = Assay for calcium-independent phospholipase A2 activity of recombinant enzymes; conditions: for calcium-independent PLA2 activity: Sf9 cytosol and membrane fractions, 1-palmitoyl-2-[1-14C]-oleoyl-sn-glycerol-3-phosphocholine, relative to control; for PLA2 hydrolysis rate: affinity purified, 30 min
Text: […] Reactions were terminated by addition of 100 microliters of butanol and extraction of the radiolabeled product and remaining substrate into the butanol layer by vigorous vortexing. Samples were spotted on LK6 Silica Gel 60 Å TLC plates, overlaid with oleic acid standard, dried, and developed in petroleum etherlethyl etherlacetic acid (70:30:1). The region of the plate corresponding to the oleic acid standard (visualized by iodine staining) was scraped into scintillation vials and quantified by liquid scintillation spectrometry.

[3] = Assay for acylglycerol transacylase activity; conditions: affinity purified
Experimental: Assay for Acylglycerol Transacylase Activity—Highly purified CO^2+-TALON affinity chromatographic fractions containing iPLA2epsilon(His)6 (6xHis tag disclosed as SEQ ID NO: 29), iPLA2zeta(His)6 (6xHis tag disclosed as SEQ ID NO: 29) or iPLA2eta(His)6 (6xHis tag disclosed as SEQ ID NO: 29) (40 microliters) were incubated in 85 mM potassium phosphate, pH 7.0 (200 microliters final volume) for 15 mm at 37° C. in the presence of 10 microM [1-^14-C]-mono-olein (acyl donor), 25 microM acyl acceptor (mono-olein or diolein), 25 microM egg yolk lecithin, and 25 microM sodium taurocholate. After extraction of radiolabeled reaction products and remaining substrate into butanol, samples were spotted on TLC plates, overlaid with trileiddiolein standards, dried, and developed in petroleum etherlethyl etherlacetic acid (75:25:1). The regions of the plate corresponding to either the diolein, triolein, and fatty acid standards (visualized by iodine staining) were scraped into scintillation vials and quantified by liquid scintillation spectrometry.

[4] = 1-palmitoyl-2-[1-14C]-arachidonyl-sn-glycerol-3-phosphocholine
[5] = 1-palmitoyl-2-[1-14C]-linoleoyl-sn-glycerol-3-phosphocholine

B1: iPLA2epsilon(His)6: recombinant human calcium-independent phospholipase A2 epsilon (adiponutrin, SEQ ID NO: 1) expressed in Sf9 cells (protein, listed as Homo sapiens)
chain: MYDAERGWSLSFAGCGFLGFYHVGATRCLSEHAPHLLRDARMLFGASAGALHCVGVLSGIPLEQTLQVLSDLVRKARSRNIGIFHPSFNLSKFLRQGLCKCLPANVHQLISGKIGISLTRVSDGENVLVSDFRSKDEVVDALVCSCFIPFYSGLIPPSFRGVRYVDGGVSDNVPFIDAKTTITVSPFYGEYDICPKVKSTNFLHVDITKLSLRLCTGNLYLLSRAFVPPDLKVLGEICLRGYLDAFRFLEEKGICNRPQPGLKSSSEGMDPEVAMPSWANMSLDSSPESAALAVRLEGDELLDHLRLSILPWDESILDTLSPRLATALSEEMKDKGGYMSKICNLLPIRIMSYVMLPCTLPVESAIAIVQRLVTWLPDMPDDVLWLQWVTSQVFTRVLMCLLPASRSQMPVSSQQASPCTPEQDWPCWTPCSPEGCPAETKAEATPRSILRSSLNFFLGNKVPAGAEGLSTFPSFSLEKSLHHHHHH
modifications: C-terminal His6 tag
triolein lipase specific activity [1]: 8 nmol oleic acid·min^−1·mg^−1 protein | calcium-independent PLA2 activity [2]: 20-50 pmol·min^−1·mg protein^−1 | PLA2 hydrolysis rate [2, 4]: 100±4 pmol arachidonic acid·min^31 1·mg protein^−1 | PLA2 hydrolysis rate [2, 5]: 57±3 pmol linoleic acid·min^−1·mg protein^−1

B2: iPLA2zeta(His)6: recombinant human calcium-independent phospholipase A2 zeta (TTS-2.2, SEQ ID NO: 2) expressed in Sf9 cells (protein, listed as Homo sapiens)
chain: MFPREKTWNISFAGCGFLGVYYVGVASCLREHAPFLVANATHIYGASAGALTATALVTGVCLGEAGAKFIEVSKEARKRFLGPLHPSFNLVKIIRSFLLKVLPADSHEHASGRLGISLTRVSDGENVIISHFNSKDELIQANVCSGFIPVYCGLIPPSLQGVRYVDGGISDNLPLYELKNTITVSPFSGESDICPQDSSTNIHELRVTNTSIQFNLRNLYRLSKALFPPEPLVLREMCKQGYRDGLRFLQRNGLLNRPNPLLALPPARPHGPEDKDQAVESAQAEDYSQLPGEDHILEHLPARLNEALLEACVEPTDLLTTLSNMLPVRLATAMMVPYTLPLESALSFTIRLLEWLPDVPEDIRWMKEQTGSICQYLVMRAKRKLGRHLPSRLPEQVELRRVQSLPSVPLSCAAYREALPGWMRNNLSLGDALAKWEECQRQLLLGLFCTNVAFPPEALRMRAPADPAPAPADPASPQHQPAGPAPLLSTPAPEARPVIGALGLHHHHHH
modifications: C-terminal His6 tag
triolein lipase specific activity [1]: 9 nmol oleic acid·min^−1·mg^−1 protein | calcium-independent PLA2 activity [2]: did not yield detectable amounts; also recorded: did not display measurable iPLA2 activity | PLA2 hydrolysis rate [2, 4]: 119±6 pmol arachidonic acid·min^31 1·mg protein^−1 | PLA2 hydrolysis rate [2, 5]: 57±19 pmol linoleic acid·min^−1·mg protein^−1

B3: iPLA2eta(His)6: recombinant human calcium-independent phospholipase A2 eta (GS2, SEQ ID NO: 3) expressed in Sf9 cells (protein, listed as Homo sapiens)
chain: MKHINLSFAACGFLGIYHLGAASALCRHGKKLVKDVKAFAGASAGFTSLVASVLLTAPEKIEECNQFTYKFAEEIRRQSFGAVTPGYDFMARLRSGMESILPPSAHFTELAQNRLHVSITNAKTRENHLVSTFSSREDLIKVLLASSFVPIYAGLKLVEYKGQKWVDFTGGLTNALPILPVGRTVTISPFSGRLDISPQDKGQLDLYVNIAKQDIMLSLANLVRLNQAFTLFPPSKRKMESLYQCGFDDTVKFLLKENWFEHHHHHH
modifications: C-terminal His6 tag
transacylation specific activity relative to iPLA2epsilon(His)6 and iPLA2zeta(His)6 [3]: approximately 10 fold | triolein lipase specific activity relative to iPLA2epsilon(His)6 and iPLA2zeta(His)6 ([1]; Sf9 fractions, normalised to immunoreactive protein): 5-10 fold | triolein lipase specific activity [1]: 52 nmol oleic acid·min^−1·mg^−1 protein | calcium-independent PLA2 activity [2]: did not yield detectable amounts; also recorded: did not display measurable iPLA2 activity | PLA2 hydrolysis rate [2, 4]: 134±42 pmol arachidonic acid·min^31 1·mg protein^−1 | PLA2 hydrolysis rate [2, 5]: 77±23 pmol linoleic acid·min^−1·mg protein^−1
